Laboratory results reported in PMC4335062, “Data-Driven Prediction and Design of bZIP Coiled-Coil Interactions” (PLoS Computational Biology, 2015).
Values joined by “and” are separate entries in the source; they are usually repeats but may differ in a detail not shown here. Identical values can stand only once. Like-named read-outs stand apart in the source and are kept apart here. Where no end group is shown, it is not given here.

Columns and labels:
[1] = biological target: T1, XBP1/CREBZF heterodimer (Homo sapiens, UniProt P17861); assay: Competition FRET assay; type: binding; settings: 23°C; 10 nM XBP1 (fluorescein) with 50 nM CREBZF (TAMRA); unlabeled design
T1 construct: made in house
Description: (§1) In the competition form of the assay, a FRET pair was made by mixing 10 nM of the donor-labeled peptide with a specified concentration of the acceptor-labeled peptide in 1 mM TCEP-HCl, and 20 μL of this solution was added to the wells after unlabeled design was titrated in 2-fold dilutions over the wells to a final concentration ranging from 0 to 2.5 μM. The amount of acceptor used varied for each curve, taking into account the Kd of the FRET complex in order to obtain a good lower baseline for fitting purposes. Samples were equilibrated for one hour before reading the plates; repeated reading of the plates over several hours gave no change in signal.
(§2) For the competition experiments, the IC50 was determined in MATLAB by fitting the binding data to the equation signal=a+b−a/(1+x/c)^H , where a and b are the lower and upper baselines, c is the IC50 value, x is the inhibitor concentration, and the Hill coefficient H was set to 1. Ki values were calculated as in Fu et al..

[2] = biological target: T2, ATF4/FOS heterodimer (Homo sapiens, UniProt P18848); assay: Competition FRET assay; type: binding; settings: 37°C; 10 nM ATF4 (fluorescein) with 200 nM FOS (TAMRA); unlabeled design
T2 construct: made in house
Description: as §1, §2

[3] = biological target: ATF2 (human) (UniProt P15336); assay: FRET or BRET; direct-binding FRET in 384-well plates; rhodamine-labelled design (acceptor) titrated 0 to 1 uM into 10 nM fluorescein-labelled bZIP (donor); 150 mM KCl, 50 mM potassium phosphate pH 7.4, 0.1% Tween-20, 0.1% BSA; 37 °C
Sequence of ATF2 (human) (P15336 whole entry): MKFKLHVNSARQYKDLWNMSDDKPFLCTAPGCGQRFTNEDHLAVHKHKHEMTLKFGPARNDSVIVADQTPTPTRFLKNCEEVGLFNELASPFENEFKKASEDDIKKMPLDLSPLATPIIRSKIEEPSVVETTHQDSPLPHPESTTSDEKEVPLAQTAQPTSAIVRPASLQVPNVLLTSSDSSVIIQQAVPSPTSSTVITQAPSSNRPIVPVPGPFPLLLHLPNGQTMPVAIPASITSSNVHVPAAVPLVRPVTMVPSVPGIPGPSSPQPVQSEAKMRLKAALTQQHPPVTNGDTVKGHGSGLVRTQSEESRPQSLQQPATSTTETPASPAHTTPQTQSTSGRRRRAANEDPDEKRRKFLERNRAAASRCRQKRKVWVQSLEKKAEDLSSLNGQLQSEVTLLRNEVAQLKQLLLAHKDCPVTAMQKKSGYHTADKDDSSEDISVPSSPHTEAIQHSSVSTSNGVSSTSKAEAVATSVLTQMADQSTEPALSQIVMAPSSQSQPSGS

[4] = biological target: CREB1 (human) (UniProt P16220); assay: as above
Sequence of CREB1 (human) (P16220 whole entry): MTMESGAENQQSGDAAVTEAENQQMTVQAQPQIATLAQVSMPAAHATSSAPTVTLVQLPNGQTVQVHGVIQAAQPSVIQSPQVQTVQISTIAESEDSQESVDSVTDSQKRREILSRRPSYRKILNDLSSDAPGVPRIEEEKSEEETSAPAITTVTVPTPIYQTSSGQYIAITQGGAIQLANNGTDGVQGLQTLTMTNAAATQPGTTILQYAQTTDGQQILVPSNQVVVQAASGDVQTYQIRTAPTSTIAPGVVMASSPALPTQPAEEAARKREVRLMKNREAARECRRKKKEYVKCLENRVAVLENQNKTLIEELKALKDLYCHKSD

[5] = biological target: ATF6B (Homo sapiens, UniProt Q99941); assay: as above
Sequence of ATF6B (Q99941 whole entry): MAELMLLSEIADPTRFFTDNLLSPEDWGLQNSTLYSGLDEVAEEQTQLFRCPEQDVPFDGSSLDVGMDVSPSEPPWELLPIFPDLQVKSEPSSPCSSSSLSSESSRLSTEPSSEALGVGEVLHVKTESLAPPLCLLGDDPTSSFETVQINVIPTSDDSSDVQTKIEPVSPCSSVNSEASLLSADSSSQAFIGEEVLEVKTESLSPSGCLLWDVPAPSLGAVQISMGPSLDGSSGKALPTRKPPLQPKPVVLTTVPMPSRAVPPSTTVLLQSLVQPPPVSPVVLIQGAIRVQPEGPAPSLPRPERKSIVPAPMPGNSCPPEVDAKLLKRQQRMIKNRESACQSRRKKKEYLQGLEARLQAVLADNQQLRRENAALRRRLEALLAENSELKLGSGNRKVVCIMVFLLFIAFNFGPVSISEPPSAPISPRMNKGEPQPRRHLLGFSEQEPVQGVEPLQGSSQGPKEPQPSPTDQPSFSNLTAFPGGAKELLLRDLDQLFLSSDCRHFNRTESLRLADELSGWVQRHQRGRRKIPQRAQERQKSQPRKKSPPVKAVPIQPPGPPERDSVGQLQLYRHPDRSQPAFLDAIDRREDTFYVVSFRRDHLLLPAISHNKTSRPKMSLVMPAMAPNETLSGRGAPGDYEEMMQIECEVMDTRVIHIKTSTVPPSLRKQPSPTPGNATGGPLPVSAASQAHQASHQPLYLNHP

[6] = biological target: X-box binding protein 1 (human) (UniProt P17861); assay: as above
Sequence of X-box binding protein 1 (human) (P17861 whole entry): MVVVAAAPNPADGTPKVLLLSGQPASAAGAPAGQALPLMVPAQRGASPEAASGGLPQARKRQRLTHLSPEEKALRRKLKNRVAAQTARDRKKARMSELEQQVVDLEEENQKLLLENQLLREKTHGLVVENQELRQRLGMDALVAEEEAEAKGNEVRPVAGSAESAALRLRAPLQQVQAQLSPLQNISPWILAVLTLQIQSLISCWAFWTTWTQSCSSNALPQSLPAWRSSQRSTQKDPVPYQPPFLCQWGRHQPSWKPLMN

[7] = biological target: MAFG (Homo sapiens, UniProt O15525); assay: as above
Sequence of MAFG (O15525 whole entry): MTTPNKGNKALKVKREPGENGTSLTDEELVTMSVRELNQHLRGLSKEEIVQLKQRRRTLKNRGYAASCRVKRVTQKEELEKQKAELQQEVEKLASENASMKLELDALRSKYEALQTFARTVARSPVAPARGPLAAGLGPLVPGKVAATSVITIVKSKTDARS

[8] = biological target: ATF2 (human) (UniProt P15336); assay: FRET or BRET; direct-binding FRET in 384-well plates; rhodamine-labelled design (acceptor) titrated 0 to 1 uM into 10 nM fluorescein-labelled bZIP (donor); 150 mM KCl, 50 mM potassium phosphate pH 7.4, 0.1% Tween-20, 0.1% BSA; 4 °C
[9] = biological target: ATF5 (human) (UniProt Q9Y2D1); assay: as above
Sequence of ATF5 (human) (Q9Y2D1 whole entry): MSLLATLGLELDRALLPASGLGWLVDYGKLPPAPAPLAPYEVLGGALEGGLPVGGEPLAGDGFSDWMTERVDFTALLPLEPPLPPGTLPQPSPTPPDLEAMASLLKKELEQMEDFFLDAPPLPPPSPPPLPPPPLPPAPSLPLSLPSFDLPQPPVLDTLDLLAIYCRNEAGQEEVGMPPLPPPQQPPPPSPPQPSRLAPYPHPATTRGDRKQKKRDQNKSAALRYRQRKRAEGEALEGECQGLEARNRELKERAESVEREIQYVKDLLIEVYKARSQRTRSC

[10] = biological target: ATF4 (human) (UniProt P18848); assay: as above
Sequence of ATF4 (human) (P18848 whole entry): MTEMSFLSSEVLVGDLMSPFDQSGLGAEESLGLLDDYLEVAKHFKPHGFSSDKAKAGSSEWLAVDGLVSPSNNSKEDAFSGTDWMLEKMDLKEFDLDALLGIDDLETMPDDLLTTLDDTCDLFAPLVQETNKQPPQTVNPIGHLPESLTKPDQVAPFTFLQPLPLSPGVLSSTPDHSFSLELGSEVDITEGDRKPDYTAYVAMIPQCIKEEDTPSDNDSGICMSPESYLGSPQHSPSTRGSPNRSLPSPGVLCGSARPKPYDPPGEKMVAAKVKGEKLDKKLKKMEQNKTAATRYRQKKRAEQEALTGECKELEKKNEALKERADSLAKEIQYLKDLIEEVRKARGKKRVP

[11] = biological target: CREB1 (human) (UniProt P16220); assay: FRET or BRET; direct-binding FRET in 384-well plates; rhodamine-labelled design (acceptor) titrated 0 to 1 uM into 10 nM fluorescein-labelled bZIP (donor); 150 mM KCl, 50 mM potassium phosphate pH 7.4, 0.1% Tween-20, 0.1% BSA; 37 °C; remark: listed apart in the source
[12] = biological target: CREB3L1 (human) (UniProt Q96BA8); assay: as above
Sequence of CREB3L1 (human) (Q96BA8 whole entry): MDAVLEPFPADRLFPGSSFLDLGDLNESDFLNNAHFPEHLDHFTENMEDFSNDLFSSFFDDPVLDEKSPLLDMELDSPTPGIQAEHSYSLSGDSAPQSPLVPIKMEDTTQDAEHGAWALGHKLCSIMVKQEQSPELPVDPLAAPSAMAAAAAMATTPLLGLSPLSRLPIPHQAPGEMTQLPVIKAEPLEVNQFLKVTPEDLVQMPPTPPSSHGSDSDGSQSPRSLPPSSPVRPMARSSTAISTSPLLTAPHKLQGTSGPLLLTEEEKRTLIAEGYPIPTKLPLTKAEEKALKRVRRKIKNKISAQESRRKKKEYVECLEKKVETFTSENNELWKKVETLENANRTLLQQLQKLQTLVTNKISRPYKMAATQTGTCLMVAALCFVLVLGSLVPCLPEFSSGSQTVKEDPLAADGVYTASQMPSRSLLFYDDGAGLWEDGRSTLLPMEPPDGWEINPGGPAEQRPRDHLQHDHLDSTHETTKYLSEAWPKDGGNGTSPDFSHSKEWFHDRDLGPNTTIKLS

[13] = biological target: BATF3 (human) (UniProt Q9NR55); assay: as above
Sequence of BATF3 (human) (Q9NR55 whole entry): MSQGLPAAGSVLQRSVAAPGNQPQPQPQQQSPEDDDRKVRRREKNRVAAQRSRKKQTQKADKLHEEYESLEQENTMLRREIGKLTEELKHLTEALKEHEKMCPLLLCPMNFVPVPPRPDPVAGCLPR

[14] = biological target: JUN (Homo sapiens, UniProt P05412); assay: as above
Sequence of JUN (P05412 whole entry): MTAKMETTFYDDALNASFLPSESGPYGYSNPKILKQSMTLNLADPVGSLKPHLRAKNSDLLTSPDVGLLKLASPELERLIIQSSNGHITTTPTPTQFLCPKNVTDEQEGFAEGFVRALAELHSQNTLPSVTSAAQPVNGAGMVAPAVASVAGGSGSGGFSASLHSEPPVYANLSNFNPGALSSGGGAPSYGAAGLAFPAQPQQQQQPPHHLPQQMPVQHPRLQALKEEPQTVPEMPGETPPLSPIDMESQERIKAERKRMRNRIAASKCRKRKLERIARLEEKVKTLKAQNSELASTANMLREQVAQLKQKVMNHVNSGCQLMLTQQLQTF

[15] = biological target: HLF (human) (UniProt Q16534); assay: as above
Sequence of HLF (human) (Q16534 whole entry): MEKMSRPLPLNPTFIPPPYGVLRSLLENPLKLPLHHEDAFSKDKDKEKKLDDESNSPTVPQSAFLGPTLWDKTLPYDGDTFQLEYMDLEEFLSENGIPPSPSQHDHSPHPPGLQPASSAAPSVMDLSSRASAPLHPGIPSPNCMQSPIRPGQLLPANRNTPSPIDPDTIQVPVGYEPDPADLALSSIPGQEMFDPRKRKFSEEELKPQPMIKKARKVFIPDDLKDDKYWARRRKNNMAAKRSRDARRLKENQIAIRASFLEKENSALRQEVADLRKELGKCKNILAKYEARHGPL

[16] = biological target: NFE2L1 (Homo sapiens, UniProt Q14494); assay: as above
Sequence of NFE2L1 (Q14494 whole entry): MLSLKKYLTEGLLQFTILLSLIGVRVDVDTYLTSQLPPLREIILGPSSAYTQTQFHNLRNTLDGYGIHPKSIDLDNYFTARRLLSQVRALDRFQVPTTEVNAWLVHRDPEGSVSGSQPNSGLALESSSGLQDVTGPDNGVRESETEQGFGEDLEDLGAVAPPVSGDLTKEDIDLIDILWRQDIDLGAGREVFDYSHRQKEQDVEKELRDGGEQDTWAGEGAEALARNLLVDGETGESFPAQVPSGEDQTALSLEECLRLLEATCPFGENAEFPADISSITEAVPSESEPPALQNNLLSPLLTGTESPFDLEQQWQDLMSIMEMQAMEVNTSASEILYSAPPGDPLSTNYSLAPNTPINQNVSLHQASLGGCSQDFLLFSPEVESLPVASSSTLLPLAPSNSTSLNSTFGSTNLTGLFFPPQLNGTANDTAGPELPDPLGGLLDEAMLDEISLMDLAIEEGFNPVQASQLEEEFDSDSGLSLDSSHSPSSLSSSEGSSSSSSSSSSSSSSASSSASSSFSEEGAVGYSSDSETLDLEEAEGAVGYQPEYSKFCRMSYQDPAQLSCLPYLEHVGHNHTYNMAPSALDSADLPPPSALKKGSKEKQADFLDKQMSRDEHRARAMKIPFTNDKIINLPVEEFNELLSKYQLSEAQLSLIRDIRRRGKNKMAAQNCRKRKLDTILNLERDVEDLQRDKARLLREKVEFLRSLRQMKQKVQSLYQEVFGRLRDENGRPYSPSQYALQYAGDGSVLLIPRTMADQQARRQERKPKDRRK

An IC50 [1] of 0.136 µM was found for “EREAQLENRVAHLKEKNQELKAQNLHLKEALSEAQNRNQELKNDA [XBP1-d1]” in this work.

An IC50 [2] of 0.279 µM was found for “NQIKTLRTRLSKLRKDNLQLEKDIANLERKAKDLRAEKEQLEYEL [ATF4-d1]” in this work.

B1: ATF4-d1 labeled at the C-terminus (designed binder)
chain: GESKEYKKGSGSNQIKTLRTRLSKLRKDNLQLEKDIANLERKAKDLRAEKEQLEYELGC
modifications: also: C59 label by assay: Rhodamine Red C2-maleimide or fluorescein-5-maleimide
notes: solubility linker after the His6 tag; added to the C-terminus for labeling; one molecule for the rhodamine- and the fluorescein-labelled form; the assay tells which label stood there; also called ATF4-d1-Rhodamine; ATF4-d1-FITC; source: E. coli RP3098, purified (Ni-NTA under denaturing conditions, reverse-phase HPLC)
B1 was tested, and the Kd [3] was > 5 µM, the Kd [4] was > 5 µM and the Kd [5] was > 5 µM. For the same molecule, the Kd [6] was > 5 µM, the Kd [7] was > 5 µM and the Kd [8] was 1 µM. The Kd [9] was > 5 µM and the Kd [10] was 0.001 µM.

B2: ATF5-d1 labeled at the C-terminus (designed binder)
chain: GESKEYKKGSGSKRIAYLRQRIAELRNENHVLESRIQRMEKEKDALQQDRDHLEYELGC(Rhodamine Red C2‑maleimide)
modifications: not fully specified
For B2, the Kd [11] was 1 µM, the Kd [12] was 1 µM and the Kd [13] was > 5 µM. The Kd [14] was > 5 µM, the Kd [15] was > 5 µM and the Kd [16] was > 5 µM. For the same molecule, the Kd [8] was > 5 µM, the Kd [9] was 0.0011 µM and 0.0012 µM and 0.001 µM and the Kd [10] was 0.001 µM.
